# Measurements as given in publication PMC4789793, “Noggin4 is a long-range inhibitor of Wnt8 signalling that regulates head development in Xenopus laevis” (Scientific Reports, 2016).
# T1: TagRFP-XWnt8 (Xenopus laevis, UniProt P28026 23-358)
# T1 construct: Wnt8 (XWnt8), Xenopus laevis, secreted fusion with TagRFP; also called TagRFP-Wnt8
# T1 sequence (looked up): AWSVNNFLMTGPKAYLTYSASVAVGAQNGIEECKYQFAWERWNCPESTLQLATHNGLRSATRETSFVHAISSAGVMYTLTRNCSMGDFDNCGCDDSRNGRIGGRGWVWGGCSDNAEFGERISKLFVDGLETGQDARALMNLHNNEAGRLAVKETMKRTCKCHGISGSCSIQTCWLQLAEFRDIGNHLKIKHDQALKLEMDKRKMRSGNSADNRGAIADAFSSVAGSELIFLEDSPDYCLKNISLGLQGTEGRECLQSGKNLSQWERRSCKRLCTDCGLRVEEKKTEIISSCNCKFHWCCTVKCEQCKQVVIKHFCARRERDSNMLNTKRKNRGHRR
# Tests used:
# [1] = target: Myc-Noggin4 (Xenopus laevis); test: co-IP; quantitative co-immunoprecipitation (qCoIP): gradually decreasing concentrations of Flag-Wnt8 added to a standard amount of Myc-Noggin4 pre-mixed with anti-Myc resin; bound and unbound Flag-Wnt8 by quantitative Western blot against Flag-BAP standard
# [2] = target: 3Myc-His6-Noggin4 (Xenopus laevis); test: SPR; Biacore T200; 3Myc-6His-Noggin4 immobilised on CM5 chip (1,500 RU) by amine coupling; 6His-Wnt8 injected; HBS-EP, 25 °C; equilibrium responses fitted to a 1:1 Langmuir model
# TagRFP-XWnt8 = target: T1, TagRFP-XWnt8; test: FRAP in living embryos; EGFP-Noggin4 bleached in a single intercellular space of the animal ectoderm that also holds TagRFP-Wnt8 (quasi-immobile); about 1 μM of each; Kd selected to fit the FRAP kinetics by a diffusion-adsorption model; conditions: partners not purified
binder,measurement,setting,value
Flag-Wnt8 (ligand) AWSVNNFLMTGPKAYLTYSASVAVGAQNGIEECKYQFAWERWNCPESTLQLATHNGLRSATRETSFVHAISSAGVMYTLTRNCSMGDFDNCGCDDSRNGRIGGRGWVWGGCSDNAEFGERISKLFVDGLETGQDARALMNLHNNEAGRLAVKETMKRTCKCHGISGSCSIQTCWLQLAEFRDIGNHLKIKHDQALKLEMDKRKMRSGNSADNRGAIADAFSSVAGSELIFLEDSPDYCLKNISLGLQGTEGRECLQSGKNLSQWERRSCKRLCTDCGLRVEEKKTEIISSCNCKFHWCCTVKCEQCKQVVIKHFCARRERDSNMLNTKRKNRGHRR,Kd,[1],10 nM
Xenopus laevis recombinant Wnt8 labeled by 6-Hys-tag at the N-terminus (ligand) AWSVNNFLMTGPKAYLTYSASVAVGAQNGIEECKYQFAWERWNCPESTLQLATHNGLRSATRETSFVHAISSAGVMYTLTRNCSMGDFDNCGCDDSRNGRIGGRGWVWGGCSDNAEFGERISKLFVDGLETGQDARALMNLHNNEAGRLAVKETMKRTCKCHGISGSCSIQTCWLQLAEFRDIGNHLKIKHDQALKLEMDKRKMRSGNSADNRGAIADAFSSVAGSELIFLEDSPDYCLKNISLGLQGTEGRECLQSGKNLSQWERRSCKRLCTDCGLRVEEKKTEIISSCNCKFHWCCTVKCEQCKQVVIKHFCARRERDSNMLNTKRKNRGHRR,Kd,[2],90 nM
"EGFP-Noggin4 (natural protein, No candidate is Noggin4 (P49011 is Noggin1). The paper reports two pseudoalleles and does not say which was used, so nog4.L is assumed. The Table S1 primers show the mature part starting at GQTNDL …) MVHILVISWLMTLGTWGPTAICAPTNDLEPHNRTQKDMDIGSLRRQLSSGTRPYSLSLSPQDYHYSPKPKHLRVSRLLRLLGSSFDPFWMSVEQPADYSTSLLSTLSQDLYDGASRYRKKLAQEVQGLNFDSLQLPTELSANASQNIQNEIRQWLVQRASCQLTSTWVDLGTVFWPRWVRHTDCDGTNTACSWPPGMACRQAQFTQIKLLAWHCWMKDTGLGWATQQCTWRQVPYPVVAACKCTCR",Kd,TagRFP-XWnt8,≤ 100 nM
